The results in this text go back to patent publication US20230392126A1, “TISSUE ORGANOIDS” (priority 2016, published 2023).

A short description of data set [1]: Stability and tolerance of transplanted skin organoids in immunocompetent hosts. The class given is in vivo, mouse. The settings on record: isogenic hosts CD1 and C57BL/6. An excerpt: For grafting with skin organoids, CD1 (isogenic mouse keratinocyte transplantation) males or Nude (human keratinocyte transplantation) females with the ages of 6-8 weeks were anesthetized. A silicone chamber bottom with the interior diameter of 0.8 cm and the exterior diameter of 1.5 cm was implanted on its shaved dorsal mid-line skin, which was used to hold the skin graft. A chamber cap was installed to seal the chamber right after a piece of graft was implanted. About one week later, the chamber cap was removed to expose the graft to air. A single dose of 0.2 mg α-CD4 (GK1.5) and 0.2 mg α-CD8 (2.43.1) antibodies was administered intraperitoneally for skin grafting.
Optical imaging was performed in the integrated small animal imaging research resource (iSAIRR) at the University of Chicago. Bioluminescence images were acquired on an IVIS Spectrum (Caliper Life Sciences®, Alameda, CA) after animal was injected with luciferin (100 mg/kg). […]
Grafted cells in immunocompetent hosts readily expressed exogenous genes, such as Luciferase and Histone H2B-RFP (FIG. 1B-D), which were transduced to the cells with lentivirus. […] Importantly, the tissue organoid with expression of exogenous gene, such as Luciferase and H2B-RFP, was stable in vivo for more than 5 months in immunocompetent hosts, as determined by intravital bioluminescence imaging and tissue histology. […]

Data set [2] in a line: Acute drug overdose test: METH-induced lethality. The format is in vivo, mouse. The note with it: 34, 68, 100, 160 mg/kg METH i.p. As for the experimental part: For all behavioral experiments except where noted, C57BL/6J mice were used. Roughly equal numbers of adult male and female mice were group-housed until surgery. Mice were maintained under controlled temperature and humidity conditions on a 12 h:12 h light:dark cycle (lights on at 7:00). Water and food were available ad libitum. Mice weighed around 25-30 g at the beginning of the experiments. All procedures followed National Institutes of Health Guide for the Care and Use of Laboratory Animal and were approved by the University of Chicago Institutional Animal Care and Use Committee.
Drug: Cocaine HCl and methamphetamine HCl (Sigma-Aldrich, Saint Louis, MO) were dissolved in sterile saline and delivered intraperitoneally at appropriates doses in a volume of 10 mL/kg. […]
Acute drug overdose test: Two weeks after grafting surgery, 4 groups of GhBChE and 4 groups of GWT mice (n=8 each in each group) received i.p. injections of cocaine at 40, 120, and 160 mg/kg. […] Mice were monitored for 2 h following injection and percent of cocaine- and METH-induced lethality was calculated.
To first determine whether engrafting hBChE-expressing cells protects mice from acute systemic toxicity of cocaine, we delivered different doses of cocaine to grafted mice and calculated the lethality rates of cocaine. […]

A short description of data set [3]: Extinction and cocaine-induced reinstatement of CPP. The class given is in vivo, mouse. The note with it: grafted after CPP acquisition; priming 15 mg/kg cocaine. As for the experimental part:
Extinction and reinstatement of CPP: Following CPP acquisition, mice underwent extinction, in which the procedure was identical to that in the test day. In each extinction day, mice were allowed to explore the entire chambers for 20 min and time spent in each area was recorded. Extinction was performed until the CPP decreased to a level that was not different from that of the pretest in consecutive two days. On the following day of the last extinction, mice underwent reinstatement procedures, in which mice that were trained for cocaine CPP received an i.p. injection of 15 mg/kg cocaine, and mice that were trained for ethanol CPP received an i.p. injection of 1 g/kg ethanol. Immediate after injection, mice were allowed to explore the entire chambers for 20 min and time spent in each area was recorded.
Specific methods: One group of GhBChE and one group of GWT mice (n=9 in each group) were trained for cocaine CPP 7 days after engraftment (FIG. 18A). Mice underwent pretest on Day 1, four days of cocaine conditioning day 2 to Day 5, and CPP test on Day 6. One group of GhBChE and one group of GWT mice (n=8 in each group) were trained for ethanol CPP 7 days after engraftment (FIG. 18B). Mice underwent pretest on Day 1, four ethanol conditioning day 2 to Day 5, and CPP test on Day 6. […]

Another data set relates to epidermal stem cells. The experiment in a line: Anchorage-independent growth in soft agar. The settings on record: SCC cancer initiating cells as positive control.
The next data set concerns mouse epidermal cells. Description: Expression and secretion of hBChE by immunoblots and ELISA (mouse epidermal cells). The note with it: engineered mouse epidermal cells.

B1: hBChE: modified human butyrylcholinesterase (E30-6, SEQ ID NO: 41), cocaine hydrolase, expressed from engineered epidermal cells / skin grafts (protein)
chain: MHSKVTIICIRFLFWFLLLCMLIGKSHTEDDIIIATKNGKVRGMNLTVFGGTVTAFLGIPYAQPPLGRLRFKKPQSLTKWSDIWNATKYANSCCQNIDQSFPGFHGSEMWNPNTDLSEDCLYLNVWIPAPKPKNATVLIWIYGGGFQTGTSSLHVYDGKFLARVERVIVVSMNYRVGALGFLALPGNPEAPGNMGLFDQQLALQWVQKNIAAFGGNPKSVTLFGESSGAASVSLHLLSPGSHSLFTRAILQSGSANAPWAVTSLYEARNRTLNLAKLTGCSRENETEIIKCLRNKDPQEILLNEAFVVPYGTALGVNFGPTVDGDFLTDMPDILLELGQFKKTQILVGVNKDEGTWFLVGGAPGFSKDNNSIITRKEFQEGLKIFFPGVSEFGKESILFHYTDWVDDQRPENYREALGDVVGDYNFICPALEFTKKFSEWGNNAFFYYFEHRSSKLPWPEWMGVMHGYEIEFVFGLPLERRDNYTKAEEILSRSIVKRWANFAKYGNPNETQNNSTSWPVFKSTEQKYLTLNTESTRIMTKLRAQQCRFWTSFFPKVLEMTGNIDEAEWEWKAGFHRWNNYMMDWKNQFNDYTSKKESCVGL
modifications: Human mutant BChE
On to B1, for which, in data set [1], the “time without significant rejection of skin grafts” value is reported as “at least 5 months”. Moreover, the “METH-induced lethality, GhBChE vs GWT” value in data set [2] was “no difference in lethality”. The “cocaine-induced reinstatement of preference” value in data set [3] is reported as “restored in the GWT mice but not in the GhBChE mice”. In addition, the “anchorage-independent growth (tumorigenicity)” value with epidermal stem cells is listed as “cannot grow in suspension”. Further, the “expression and secretion of hBChE” value with mouse epidermal cells was “robust expression and secretion of hBChE”.
